In patent publication US20020164620:

Legend:
[1] = target: T1, SCC1-myc (in vitro translated human SCC1 with myc tag) (UniProt O60216)
T1 sequence: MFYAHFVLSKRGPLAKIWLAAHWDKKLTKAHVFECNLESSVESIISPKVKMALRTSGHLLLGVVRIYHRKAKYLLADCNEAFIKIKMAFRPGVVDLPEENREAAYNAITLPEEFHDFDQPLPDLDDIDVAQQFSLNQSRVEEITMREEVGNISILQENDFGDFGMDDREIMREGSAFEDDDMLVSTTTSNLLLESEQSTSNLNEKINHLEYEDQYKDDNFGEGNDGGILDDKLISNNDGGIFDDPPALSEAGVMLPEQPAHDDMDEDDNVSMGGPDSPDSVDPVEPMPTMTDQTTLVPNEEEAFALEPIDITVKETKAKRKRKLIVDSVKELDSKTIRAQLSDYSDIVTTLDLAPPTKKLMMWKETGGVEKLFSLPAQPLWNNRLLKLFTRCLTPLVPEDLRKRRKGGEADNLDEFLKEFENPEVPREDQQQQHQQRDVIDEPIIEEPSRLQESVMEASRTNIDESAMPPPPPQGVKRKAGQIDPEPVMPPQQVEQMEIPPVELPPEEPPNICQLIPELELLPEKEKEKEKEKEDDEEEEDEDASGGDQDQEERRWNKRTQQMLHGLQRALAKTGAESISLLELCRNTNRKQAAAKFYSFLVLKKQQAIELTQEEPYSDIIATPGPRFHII

Bio-SVEQGR-cmk = system: T2, Bio-SVEQGR-cmk
T2 sequence: SVEQGR

[2] = system: separase-myc (in vitro translated separase construct with one myc epitope at its C-terminus)
[3] = target: T3, recombinant human securin, wildtype, expressed in E. coli (UniProt O95997)
T3 sequence: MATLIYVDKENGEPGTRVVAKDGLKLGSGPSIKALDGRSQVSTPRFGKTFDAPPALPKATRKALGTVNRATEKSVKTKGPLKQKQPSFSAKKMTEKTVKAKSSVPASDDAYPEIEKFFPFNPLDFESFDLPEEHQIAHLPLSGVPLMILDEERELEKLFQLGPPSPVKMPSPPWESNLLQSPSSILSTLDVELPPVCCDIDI

Bio-SVEQGR-amk = system: T4, Bio-SVEQGR-amk
T4 sequence: SVEQGR

[4] = target: T5, destruction box deleted form of securin (UniProt O95997)
T5 sequence: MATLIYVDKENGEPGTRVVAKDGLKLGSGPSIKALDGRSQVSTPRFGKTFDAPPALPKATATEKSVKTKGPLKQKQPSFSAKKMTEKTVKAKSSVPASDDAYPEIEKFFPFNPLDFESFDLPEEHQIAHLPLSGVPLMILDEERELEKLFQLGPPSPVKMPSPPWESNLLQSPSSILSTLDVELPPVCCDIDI

| Substance | cleavage of SCC1-myc (anti-myc immunoblot, FIG. 6B) [1] | cleavage of SCC1-myc (anti-myc immunoblot) [1] | cleavage of SCC1-myc by separase (anti-myc immunoblot) (Bio-SVEQGR-cmk) | cleavage of in vitro translated separase-myc (anti-myc immunoblot, FIG. 5) [2] | cleavage of SCC1-myc by separase (anti-myc immunoblot) [3] | cleavage of SCC1-myc by separase (anti-myc immunoblot) (Bio-SVEQGR-amk) | cleavage of SCC1-myc by separase (anti-myc immunoblot, FIG. 4C lane 2i) (Bio-SVEQGR-amk) | cleavage of SCC1-myc by separase (anti-myc immunoblot, FIG. 4C lane 3i) (Bio-SVEQGR-amk) | cleavage of SCC1-myc by separase (anti-myc immunoblot) [4] |
| --- | --- | --- | --- | --- | --- | --- | --- | --- | --- |
| N-terminally FLAG-tagged full length human separase expressed in HeLa cells, anti-FLAG immunoprecipitate activated in mitotic Xenopus egg extract | ectopically expressed separase is able to cleave human SCC1 | – | – | – | – | – | – | – | – |
| cleaved form of human separase (separase immunoprecipitate from nocodazole-arrested HeLa cells, activated in mitotic Xenopus egg extract) | – | it is the cleaved form of separase that is the active protease which cleaves SCC1, unless it is inhibited by the rebinding of securin | both inhibitors are able to block the ability of separase to cleave SCC1 | in vitro translated separase was cleaved when it was incubated with active separase obtained by incubation of separase immunoprecipitates in mitotic Xenopus egg extracts | no cleavage of SCC1 was detected | both inhibitors are able to block the ability of separase to cleave SCC1 | separase was unable to cleave SCC1 | This treatment inhibited SCC1 cleavage by separase | Identical results were obtained with two different forms of securin, the wildtype protein (WT-securin) and a form that can not be destroyed by ubiquitin-dependent proteolysis (DB-securin |
